Results: publication PMC7954794, “Protein context shapes the specificity of SH3 domain-mediated interactions in vivo” (Nature Communications, 2021)

Key:
[1] = system: growth of ABP1 SH3-swapped strains in hygromycin B; conditions: cited from earlier work
Excerpt: Having determined that multiple PPIs require SH3s, we asked whether the latter establish PPI specificity independently from their host proteins by swapping domains (Fig. 2A). Using the second round of genome editing, we individually replaced Abp1 SH3 with the 27 yeast SH3s and 3 human Abp1 orthologs’ SH3s (CTTN, HCLS1, and DBNL, Fig. 2B). The reintroduction of its own SH3 (Abp1SH3 in Abp1) reconstitutes almost perfectly Abp1’s interaction profile (Kendall’s τ = 0.93, Fig. 2B).

Hua2 = assay: Deep mutational scanning of Abp1 SH3, Abp1-Hua2 DHFR-PCA (DMS score); assay type: cell-based, Saccharomyces cerevisiae; conditions: Abp1-Hua2 DHFR-PCA; WT = 0; Fig. S3C-D
Summary of the method: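 Yeast carrying single-codon Abp1 SH3 variants at the endogenous locus, each paired with a Hua2 or Lsb3 DHFR-fragment partner; binding scored by growth over two successive 72 h PCA selections at 30 °C. Illumina counts before and after selection give the DMS score; independent duplicates.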

[2] = system: PPIs identified as affected by the SH3 domain deletions; assay: Liquid DHFR-PCA low-throughput validation of PPIs affected by SH3 deletion (Fig. S1D-E); assay type: cell-based, Saccharomyces cerevisiae; conditions: Deletedscore/WTscore
Summary of the method: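 Growth at 30 °C was tracked by OD each 15 min over 72 h in agar-free PCA selection medium, starting at 0.1 OD. Cells were diploids selected after mating, first cultured 48 h with NAT and HPH in synthetic complete MSG medium, pH 6.0.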

BBC1 = assay: DHFR-PCA on solid medium, bait BBC1 (Fig. 1B); assay type: cell-based, Saccharomyces cerevisiae; conditions: bait BBC1, label = prey
Excerpt: Supplement 41467_2021_21873_MOESM8_ESM.xlsx, sheet "Fig1B" | column: medsize; medrep; Ratio; Score

B1: ABP1: yeast SH3-containing protein; SH3-deleted (D) or gene-deleted (KO) strain (protein, UniProt P15891 2-592, looked up)
Actin-binding protein: ALEPIDYTTHSREIDAEYLKIVRGSDPDTTWLIISPNAKKEYEPESTGSSFHDFLQLFDETKVQYGLARVSPPGSDVEKIIIIGWCPDSAPLKTRASFAANFAAVANNLFKGYHVQVTARDEDDLDENELLMKISNAAGARYSIQTSSKQQGKASTPPVKKSFTPSKSPAPVSKKEPVKTPSPAPAAKISSRVNDNNDDDDWNEPELKERDFDQAPLKPNQSSYKPIGKIDLQKVIAEEKAKEDPRLVQKPTAAGSKIDPSSDIANLKNESKLKRDSEFNSFLGTTKPPSMTESSLKNDDDKVIKGFRNEKSPAQLWAERKAKQNSGNAETKAEAPKPEVPEDEPEGEPDVKDLKSKFEGLAASEKEEEEMENKFAPPPKKSEPTIISPKPFSKPQEPVKAEEAEQPKTDYKKIGNPLPGMHIEADNEEEPEENDDDWDDDEDEAAQPPLPSRNVASGAPVQKEEPEQEEIAPSLPSRNSIPAPKQEEAPEQAPEEEIEEEAEEAAPQLPSRSSAAPPPPPRRATPEKKPKENPWATAEYDYDAAEDNELTFVENDKIINIEFVDDDWWLGELEKDGSKGLFPSNYVSLGN
Hygromycin phenotype, literature [1]: hygromycin resistance

B2: WT (protein, UniProt P15891 2-592, looked up)
Actin-binding protein: ALEPIDYTTHSREIDAEYLKIVRGSDPDTTWLIISPNAKKEYEPESTGSSFHDFLQLFDETKVQYGLARVSPPGSDVEKIIIIGWCPDSAPLKTRASFAANFAAVANNLFKGYHVQVTARDEDDLDENELLMKISNAAGARYSIQTSSKQQGKASTPPVKKSFTPSKSPAPVSKKEPVKTPSPAPAAKISSRVNDNNDDDDWNEPELKERDFDQAPLKPNQSSYKPIGKIDLQKVIAEEKAKEDPRLVQKPTAAGSKIDPSSDIANLKNESKLKRDSEFNSFLGTTKPPSMTESSLKNDDDKVIKGFRNEKSPAQLWAERKAKQNSGNAETKAEAPKPEVPEDEPEGEPDVKDLKSKFEGLAASEKEEEEMENKFAPPPKKSEPTIISPKPFSKPQEPVKAEEAEQPKTDYKKIGNPLPGMHIEADNEEEPEENDDDWDDDEDEAAQPPLPSRNVASGAPVQKEEPEQEEIAPSLPSRNSIPAPKQEEAPEQAPEEEIEEEAEEAAPQLPSRSSAAPPPPPRRATPEKKPKENPWATAEYDYDAAEDNELTFVENDKIINIEFVDDDWWLGELEKDGSKGLFPSNYVSLGN
DMS score Hua2 (Hua2): 0

B3: SHO1 (protein, UniProt P40073 1-367, looked up)
High osmolarity signaling …: MSISSKIRPTPRKPSRMATDHSFKMKKFYADPFAISSISLAIVSWVIAIGGSISSASTNESFPRFTWWGIVYQFLIICSLMLFYCFDLVDHYRIFITTSIAVAFVYNTNSATNLVYADGPKKAAASAGVILLSIINLIWILYYGGDNASPTNRWIDSFSIKGIRPSPLENSLHRARRRGNRNTTPYQNNVYNDAIRDSGYATQFDGYPQQQPSHTNYVSSTALAGFENTQPNTSEAVNLHLNTLQQRINSASNAKETNDNSNNQTNTNIGNTFDTDFSNGNTETTMGDTLGLYSDIGDDNFIYKAKALYPYDADDDDAYEISFEQNEILQVSDIEGRWWKARRANGETGIIPSNYVQLIDGPEEMHR
Ratio ([2]; prey YJL128C_1): 0.6814 | Ratio ([2]; prey YOR042W_1): 0.502

B4: YBL039C (protein, UniProt P28274 1-579, looked up)
CTP synthase 1: MKYVVVSGGVISGIGKGVLASSTGMLMKTLGLKVTSIKIDPYMNIDAGTMSPLEHGECFVLDDGGETDLDLGNYERYLGVTLTKDHNITTGKIYSHVIAKERKGDYLGKTVQIVPHLTNAIQDWIERVAKIPVDDTGMEPDVCIIELGGTVGDIESAPFVEALRQFQFKVGKENFALIHVSLVPVIHGEQKTKPTQAAIKGLRSLGLVPDMIACRCSETLDKPTIDKIAMFCHVGPEQVVNVHDVNSTYHVPLLLLEQKMIDYLHARLKLDEISLTEEEKQRGLELLSKWKATTGNFDESMETVKIALVGKYTNLKDSYLSVIKALEHSSMKCRRKLDIKWVEATDLEPEAQESNKTKFHEAWNMVSTADGILIPGGFGVRGTEGMVLAARWARENHIPFLGVCLGLQIATIEFTRSVLGRKDSHSAEFYPDIDEKNHVVVFMPEIDKETMGGSMRLGLRPTFFQNETEWSQIKKLYGDVSEVHERHRHRYEINPKMVDELENNGLIFVGKDDTGKRCEILELKNHPYYIATQYHPEYTSKVLDPSKPFLGLVAASAGILQDVIEGKYDLEAGENKFNF
medrep (log2 median colony size normalized to plate background, PCA score) (BBC1; 2-4 replicates): 2.387 | Ratio (SH3-deleted/WT medrep) (BBC1; only significant differences showed, PPIs completely lost have a ratio of 0.1 and the gained PPIs 2.5): 0.1
